The labels stand for the following.
B1: mAb CC9.2 (IgG) (antibody, V domains shown)
VH: EVQLVESGGGLVQPGRSLRLSCVAPGFTLGGYGMHWVRQAPGKGLEWVGLISYDGSVQKYGSSVKGRFTISKDNSKNTLYLEMNSLRADDTAVYFCVKGASLGDNWGQGTLVTVSS
VL: EIVMTQSPLSLPVTLGQPASISCRSSQSLVYSDGDTYMSWFHQRPGQSPRRLIYKVSNRDFGVPDRFSGSGSGTDFTLKISRVEAEDVGVYYCMQGTHWPYTFGPGTKVEIK
B2: mAb CC9.1 (antibody, V domains shown)
VH: B1 VH
VL: B1 VL with F61S
B3: second SARS-CoV-2/HCoV-HKU1 cross-reactive mAb from the CC40 donor (its name is not printed in the text) (antibody, V domains shown)
VH: EVQLVESGGGVVQPGRSLRLSCVASGFTFSNYGMHWVRQAPGKGLEWVAVMSYDGSVTYYGDSVRGRFTISRDNSKNTLYLQMSSLRTDDTGVYYCAKGQPLDDIWGLGTLVTVSS
VL: EIVMTQSPLSLPVSLGQSASISCRSSQSLVHTDGITYLSWFQQRPGQSPRRLLYKVSNRDSGVPDRFSGSGSGTDFTLKISRVEAEDVGVYYCLQGTYWPWTFGQGTKVEIK
notes: also called one of the two cross-reactive mAbs from the CC40 donor

Substitutions are numbered along the chain they refer to.

The assay has as its target T1, SARS-CoV-2 soluble S ectodomain protein (residue 1-1208), prefusion-stabilized, with T4 fibritin … (SARS-CoV-2, Wuhan-Hu-1 (MN908947), UniProt P0DTC2, K986/V987 replaced by proline residues).
T1 construct: also called SARS-CoV-2 S-protein; whole S protein
The assay is described as follows: BLI. The settings on record: both partners purified.
On to B1, for which the binding result was “binds”.
For the molecule B2, the binding result was “binds”.
Regarding B3, the binding result is reported as “binds”.
